Reference: PMC7382241, “Genomic discovery of an evolutionarily programmed modality for small-molecule targeting of an intractable protein surface” (Proceedings of the National Academy of Sciences of the …, 2020)

Biological target: the molecule itself
Assay: crystal structure; CEP250_(11.4) with three-molar excess of FKBP12 and nine-molar excess of WDB002, ternary complex isolated by SEC; crystals in 0.1 M Hepes 7.0, 0.2 M sodium malonate, 21% PEG 3350

B1: CEP250_(11.4) (residues 2,134 to 2,231) (domain or fragment, human, UniProt Q9BV73 2134-2231, looked up)
chain: MEEQSLKLDSLEPRLQRELERLQAALRQTEAREIEWREKAQDLALSLAQTKASVSSLQEVAMFLQASVLERDSEQQRLQDELELTRRALEKERLHSPG
notes: human CEP250 residues 2,134 to 2,231; forms a homodimeric coiled coil in the crystal; tags not specified in the main text; Tags are in SI Materials and Methods; also called 11.4 kDa degradation product of CEP250; source: E. coli BL21(DE3)pLysS
  stoichiometry N: 2
